Source: the supplement of paper PMC10567573

B1: NET1 (parent)
chain: PTPAKRRSSALWSEMLDITMKESL

Variants of: B1
Test: protein stability index of a GFP-peptide fusion (GPS, HEK-293T) (PSI 1-6); higher = more stable
Conditions: c terminus: a fixed tail appended
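Also: lentivirally expressed fusions sorted by FACS into six bins by GFP to DsRed ratio, PSI derived from sequencing read proportions per bin multiplied by bin number.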

Variant	protein stability index
PTPAKRRSSALWSEMLDINMKESL [T19N]	3.39
PTPAKRRSSALWSEMLDIRMKESL [T19R]	1.81
PTPAKRRSSALWSEMLDIGMKESL [T19G]	2.36
PTPAKRRSSALWSEMLDIPMKESL [T19P]	1.7
PTPAKRRSSALWSEMLDIQMKESL [T19Q]	1.93
PTPAKRRSSALWSEMLDIHMKESL [T19H]	2.43
PTPAKRRSSALWSEMLDIEMKESL [T19E]	1.43
PTPAKRRSSALWSEMLDILMKESL [T19L]	1.66
PTPAKRRSSALWSEMLDIDMKESL [T19D]	2.37
PTPAKRRSSALWSEMLDIAMKESL [T19A]	1.74
PTPAKRRSSALWSEMLDIIMKESL [T19I]	1.04
PTPAKRRSSALWSEMLDIWMKESL [T19W]	1.61
PTPAKRRSSALWSEMLDITMKESC [L24C]	2.6
PTPAKRRSSALWSEMLDITMKESK [L24K]	3.05
PTPAKRRSSALWSEMLDITMKESP [L24P]	2.85
PTPAKRRSSALWSEMLDITMKESI [L24I]	2.29
PTPAKRRSSALWSEMLDITMKESQ [L24Q]	1.92
PTPAKRRSSALWSEMLDITMKESN [L24N]	3.01
PTPAKRRSSALWSEMLDITMKESF [L24F]	1.89
PTPAKRRSSALWSEMLDITMKESV [L24V]	2.33
PTPAKRRSSALWSEMLDITMKESE [L24E]	1.31
PTPAKRRSSALWSEMLDITMKEST [L24T]	2.2
PTPAKRRSSALWSEMLDITMKESG [L24G]	2.47
PTPAKRRSSALWSEMLDITMKESA [L24A]	2.59

Variant	protein stability index
PTPAKRRSSALWSEMLDITMKESW [L24W]	1.36
PTPAKRRSSALWSEMLDITMKESD [L24D]	2.48
PTPAKRRSSALWSEMLDITMKESM [L24M]	2.28
PTPAKRRSSALWSEMLDITMKESY [L24Y]	1.88
PTPAKRRSSALWSEMLDETMKESL [I18E]	2.9
PTPAKRRSSALWSEMLDDTMKESL [I18D]	3.39
PTPAKRRSSALWSEMLDATMKESL [I18A]	2.12
PTPAKRRSSALWSEMLDGTMKESL [I18G]	3.36
PTPAKRRSSALWSEMLDCTMKESL [I18C]	2
PTPAKRRSSALWSEMLDHTMKESL [I18H]	2.53
PTPAKRRSSALWSEMLDNTMKESL [I18N]	2.41
PTPAKRRSSALWSEMLDSTMKESL [I18S]	2.77
PTPAKRRSSALWSEMLDTTMKESL [I18T]	2.62
PTPAKRRSSALWSEMLDWTMKESL [I18W]	1.91
PTPAKRRSSALWSEMLDYTMKESL [I18Y]	2.97
PTPAKRRSSALWSEMLDRTMKESL [I18R]	2.84
PTPAKRRSSALWSEMLDFTMKESL [I18F]	2.46
PTPAKRRSSALWSEMLDVTMKESL [I18V]	3.12
PTPAKRRSSALWSEMLYITMKESL [D17Y]	2.83
PTPAKRRSSALWSEMLTITMKESL [D17T]	1.92
PTPAKRRSSALWSEMLRITMKESL [D17R]	2.27
PTPAKRRSSALWSEMLDITSKESL [M20S]	3.71
PTPAKRRSSALWSEMLDITDKESL [M20D]	2.58
PTPAKRRSSALWSEMLDITYKESL [M20Y]	2.64

Variant	protein stability index
PTPAKRRSSALWSEMLDITHKESL [M20H]	2.45
PTPAKRRSSALWSEMLDITVKESL [M20V]	2.73
PTPAKRRSSALWSEMLDITFKESL [M20F]	1.88
PTPAKRRSSALWSEMLDITAKESL [M20A]	2.24
PTPAKRRSSALWSEMLDITPKESL [M20P]	3.25
PTPAKRRSSALWSEMLDITRKESL [M20R]	3.42
PTPAKRRSSALWSEMLDITEKESL [M20E]	2.17
PTPAKRRSSALWSEMLDITTKESL [M20T]	2.76
PTPAKRRSSALWSEMLDITKKESL [M20K]	2.75
PTPAKRRSSALWSEMLDITGKESL [M20G]	3.44
PTPAKRRSSALWSEMLDITIKESL [M20I]	2.09
PTPAKRRSSALWSEMLDITWKESL [M20W]	1.72
PTPAKRRSSALWSEMLDITLKESL [M20L]	1.55
PTPAKRRSSALWSEMLDITNKESL [M20N]	2.74
PTPAKRRSSALWSEMLDITMVESL [K21V]	2.5
PTPAKRRSSALWSEMLDITMFESL [K21F]	1.17
PTPAKRRSSALWSEMLDITMIESL [K21I]	2.06
PTPAKRRSSALWSEMLDITMNESL [K21N]	3.67
PTPAKRRSSALWSEMLDITMEESL [K21E]	2.8
PTPAKRRSSALWSEMLDITMTESL [K21T]	2.21
PTPAKRRSSALWSEMLDITMYESL [K21Y]	2.03
PTPAKRRSSALWSEMLDITMSESL [K21S]	2.73
PTPAKRRSSALWSEMLDITMHESL [K21H]	2.25
PTPAKRRSSALWSEMLDITMAESL [K21A]	2.38

Variant	protein stability index
PTPAKRRSSALWSEMLDITMDESL [K21D]	3.04
PTPAKRRSSALWSEMLDITMRESL [K21R]	2.33
PTPAKRRSSALWSEMLDITMKPSL [E22P]	1.72
PTPAKRRSSALWSEMLDITMKHSL [E22H]	1.5
PTPAKRRSSALWSEMLDITMKSSL [E22S]	2.56
PTPAKRRSSALWSEMLDITMKQSL [E22Q]	2.57
PTPAKRRSSALWSEMLDITMKNSL [E22N]	2.19
PTPAKRRSSALWSEMLDITMKWSL [E22W]	3.09
PTPAKRRSSALWSEMLDITMKDSL [E22D]	2.1
PTPAKRRSSALWSEMLDITMKGSL [E22G]	1.96
PTPAKRRSSALWSEMLDITMKRSL [E22R]	3.35
PTPAKRRSSALWSEMLDITMKASL [E22A]	1
PTPAKRRSSALWSEMLDITMKFSL [E22F]	3.11
PTPAKRRSSALWSEMLDITMKKSL [E22K]	1.48
PTPAKRRSSALWSEMLDITMKYSL [E22Y]	2.82
PTPAKRRSSALWSEMLDITMKCSL [E22C]	1.52
PTPAKRRSSALWSEMLDITMKMSL [E22M]	2.6
PTPAKRRSSALWSEMLDITMKTSL [E22T]	3.06
PTPAKRRSSALWSEMLDITMKETL [S23T]	1.89
PTPAKRRSSALWSEMLDITMKEVL [S23V]	1.88
PTPAKRRSSALWSEMLDITMKEQL [S23Q]	2.47
PTPAKRRSSALWSEMLDITMKEWL [S23W]	3.71
